As usually defined, the Kd is the equilibrium constant for the complex coming apart.

One molecule from PMC4476739 (PLoS ONE, 2015) can be followed below.

What all share (assay): BLI; fortéBio Octet Red384; RSV F variant captured on motavizumab IgG loaded on anti-human Fc probes; Fab in solution 0.007 to 0.5 μM; 30°C; PBS + 1% BSA; 1:1 fit
What all share (conditions): both partners purified
(In BLI a coated tip is dipped into the sample, and binding shifts an interference pattern.)

Assay [1] addresses T1, DS-Cav1 2-AB, foldon removed (Human respiratory syncytial virus A, …, S155C | S290C | S190F | V207L | L512C (stands in the printed letters) | L513C …).
T1 construct: RSV F glycoprotein, F1 subunit from its N-terminus to residue 511, with the DS (S155C-S290C) and Cav1 (S190F, V207L) mutations; RSV F α10 helix from residue 512 with rings A and B; Gly-Gly linker and LVPR of the thrombin site, left after cleavage; trimeric species purified after foldon removal; also called Rings AB; rings AB without foldon; source: Expi293F, transient transfection, purified from …

Assay [2] has as its target T2, DS-Cav1 3-BCD, foldon removed (Human respiratory syncytial virus A, …, S155C | S290C | S190F | V207L | G519C (stands in the printed letters) | K520C …).
T2 construct: RSV F glycoprotein, F1 subunit from its N-terminus to residue 511, with the DS (S155C-S290C) and Cav1 (S190F, V207L) mutations; RSV F α10 helix from residue 512 with rings B and C; added stretch that duplicates part of the coiled-coil; ring D at 533C-534C; Gly-Gly linker and LVPR of the thrombin site, left after cleavage; trimeric species purified after foldon removal; also called rings BCD …

Assay [3] concerns the target T3, DS-Cav1 4-ABCD, foldon removed (Human respiratory syncytial virus A, …, S155C | S290C | S190F | V207L | L512C (stands in the printed letters) | L513C …).
T3 construct: RSV F glycoprotein, F1 subunit from its N-terminus to residue 511, with the DS (S155C-S290C) and Cav1 (S190F, V207L) mutations; RSV F α10 helix from residue 512 with rings A, B and C; added stretch that duplicates part of the coiled-coil; ring D at 533C-534C; Gly-Gly linker and LVPR of the thrombin site, left after cleavage; trimeric species purified after foldon removal; also called Rings ABCD; …

Assay [4] deals with T4, DS-Cav1 4-BCDE, foldon removed (Human respiratory syncytial virus A, …, S155C | S290C | S190F | V207L | G519C (stands in the printed letters) | K520C …).
T4 construct: RSV F glycoprotein, F1 subunit from its N-terminus to residue 511, with the DS (S155C-S290C) and Cav1 (S190F, V207L) mutations; RSV F α10 helix from residue 512 with rings B and C; added stretch based on the α10 heptad repeat; ring D at 533C-534C and ring E at 540C-541C; Gly-Gly linker and LVPR of the thrombin site, left after cleavage; trimeric species purified after foldon removal; also called …

The target of assay [5] is T5, DS-Cav1 5-ABCDE, foldon removed (Human respiratory syncytial virus A, …, S155C | S290C | S190F | V207L | L512C (stands in the printed letters) | L513C …).
T5 construct: RSV F glycoprotein, F1 subunit from its N-terminus to residue 511, with the DS (S155C-S290C) and Cav1 (S190F, V207L) mutations; RSV F α10 helix from residue 512 with rings A, B and C; added stretch based on the α10 heptad repeat; ring D at 533C-534C and ring E at 540C-541C; Gly-Gly linker and LVPR of the thrombin site, left after cleavage; trimeric species purified after foldon removal; also …

B1: D25 antigen binding fragment (Fab) (Fab, V domains shown)
VH: QVQLVQSGAEVKKPGSSVMVSCQASGGPLRNYIINWLRQAPGQGPEWMGGIIPVLGTVHYAPKFQGRVTITADESTDTAYIHLISLRSEDTAMYYCATETALVVSTTYLPHYFDNWGQGTLVTVSS
VL: DIQMTQSPSSLSAAVGDRVTITCQASQDIVNYLNWYQQKPGKAPKLLIYVASNLETGVPSRFSGSGSGTDFSLTISSLQPEDVATYYCQQYDNLPLTFGGGTKVEIK
notes: Fab in solution in the Octet assays; also called site Ø-specific antibody D25
Consider B1, for which the equilibrium dissociation constant (Kd) in assay [1] is 0.21 nM; in assay [2], 0.38 nM; in assay [3], 0.32 nM; in assay [4], 0.33 nM; in assay [5], 0.47 nM.
